From patent US20260022165A1 (US Dept. of Health and Human Services, published 2026)

B1: Ab1 Fab (His-tagged rabbit/human chimeric anti-C3d Fab) (Fab, V domains shown)
VH: QSVEESRGRLVTPGTPLTLTCTVSGIDLSSSAITWVRQAPGKGLEWIGMISTDGATYYANWAKGRFTFSKTSTTADLKITSPTTEDTATYFCARGLTNFSIWGPGTLVTVSS
VL: QPVLTQSPSASAALGASAKLTCTLSSAHKTYTIAWYQQQPGESPRYLMLLKSDGSYTRGPGVPDRFSGSSSGADRYLIIPSVQADDEAGYYCGADYNGGYVFGGGTQLTVTG
notes: Fab from the phage display vector pC3C with rabbit Vλ/human Cλ/rabbit VH, His-tagged; also called Ab1 (λ)
B2: Ab2 Fab (His-tagged rabbit/human chimeric anti-C3d Fab) (Fab, V domains shown)
VH: QSVEESGGRLVTPGTPLTLTCTVSGFSLSSYAMTWVRQAPGKGLEWIGVIGTSGMRYYANWAKGRFTISKTSTTVDLKITSPTTEDTATYFCARANFYVGNDESTDAFDPWGPGTLVTVSS
VL: ALVMTQTPPSLSASVGETVRIRCLASEDIYNTISWYQQKPGKPPTLLIYGASNLKSGVPPRFSGSGSGTDYTLTIGGVQSEDAATYYCLGGYSYSSTGLTFGAGTKVEIK
notes: Fab with rabbit Vκ/human Cκ/rabbit VH, His-tagged; also called Ab2 (κ)
B3: Ab5 Fab (His-tagged rabbit/human chimeric anti-C3d Fab) (Fab, V domains shown)
VH: QSLEESGGRLVTPGTPLTLTCTVSGFSLSTYTLGWVRQAPGKGLEYIGWIDSSGSAYYASWAKGRFTISKASSTTVDLKMAGLTTEDTATYFCASGNTGGDPLYYGMDPWGPGTLVTVSS
VL: DPVLTQTPSSTSAAVGGTVTIKCQASQNIGRWLAWYQQKPGQPPKLLIYRASDLASGVPSRFKGSGSGTQFTLTISGVQREDAATYYCLGSYSSSDSAFGGGTEVVVK
notes: Fab with rabbit Vκ/human Cκ/rabbit VH, His-tagged; also called Ab5 (κ)
B4: Ab4 Fab (His-tagged rabbit/human chimeric anti-C3d Fab) (Fab, V domains shown)
VH: QSLEESGGRLVTPGTPLTLTCTVSGFSLSRYTMAWVRQAPGKGLEYIGWIDSSGSTYYASWAKGRFTISKTSSTTVDLKMTSLTTEDTATYFCASGNDGGDPLYYGMDPWGPGTLVTVSS
VL: DGVMTQTPSSTSAAVGGTVTIKCQASQSIRSWLSWYQQKPGQPPKLLIYEASKLASGVPSRFKGSRSGTEYTLAISGVQREDAATYYCLGSIASDDTAFGAGTNVEIK
notes: Fab with rabbit Vκ/human Cκ/rabbit VH, His-tagged; also called Ab4 (κ)
B5: Ab3 Fab (His-tagged rabbit/human chimeric anti-C3d Fab) (Fab, V domains shown)
VH: QKQLVESGGRLVTPGGSLTLTCTISGIDLNTYGMTWVRQAPGKGLEYIGIIVSSGNTYYANWAQGRFTISKTSTTVDLKMTSLTASDTATYFCARGLGRAYSSGYGMDGWGPGTLVTVSS
VL: DPVLTQTPSSTSAAVGGTVTIKCQASQNIYTSLAWYQQKPGQPPKLLIYGASNLASGVPSRFKGSRSGTEYTLTISGVEREDAATYYCLGSYTQIDTTFGGGTKLEIK
notes: Fab with rabbit Vκ/human Cκ/rabbit VH, His-tagged; also called Ab3 (κ)

Experiments:
[1] = molecular target: T1, human complement protein C3d (human, UniProt P01024 1002-1303); experiment: flow cytometry; His-tagged Fab on zymosan particles opsonized with human serum (C3b/iC3b/C3d); detection AF488 mouse anti-His mAb
T1 construct: domain: C3d; the 30 min deposits on zymosan are a mixture of C3b/iC3b/C3d that the text calls C3d; also called hC3d; human C3d
Description: (§2) C3-opsonized zymosan particles (1e6) were incubated with 100 μL of 1 ug/mL His-tagged Fabs in a 96-well V-bottom plate at 37° C. for 1 h. After three washes with PBST (0.05% v/v Tween 20 in PBS), 100 μL of mouse anti-His tag mAb conjugated to horse radish peroxidase (HRP) (R&D Systems, Minneapolis, MN) at 1:1000 dilution in 1% (w/v) BSA/DPBS was added to detect bound Fabs using 2,2′-azino-bis (3-ethylbenzthiazoline)-6-sulfonic acid (Roche/Milipore Sigma, St. Louis, MO) as substrate. The absorbance was measured at 405 nm using a SpectraMax M5 microplate reader and SoftMax Pro software (Molecular Devices, LLC, San Jose, CA). To test for the potential of C3 in NHS to block binding of the mAbs to C3-fragment opsonized zymosan, serial dilutions of NHS were premixed with the opsonized zymosan particles prior to addition of his-tagged Fabs and following the procedure described above.
The binding of rabbit antibodies (Fabs) was detected by flow cytometry following the same procedure described above except using a mouse anti-His tag mAb conjugated to AF488 (Qiagen, Valencia, CA).

[2] = molecular target: T2, full length human C3 present in plasma (human, UniProt P01024 23-1663); experiment: ELISA, competition; His-tagged Fab (1 ug/mL) on zymosan opsonized with human C3 fragments in the presence of normal human serum (printed PNHCS) at 1/10, 1/50, 1/250 as source of full-length C3; normalized to media without serum
T2 construct: mature; Not purified: it stood in the assay as dilutions of normal human serum; also called full-length, soluble C3; C3 in NHS
Description: Zymosan particles opsonized with human C3 fragments were suspended in media with indicated dilutions of NHS (1/10, 1/50 and 1/250) prior to addition of His-tagged anti-C3d Fab antibodies at 1 μg/mL. Mouse anti-His mAb conjugated with HRP was used to determine the binding signal of each Fab by ELISA. Data is normalized to media control containing no NHS.
as §2

[3] = molecular target: T3, hFc-mC3d fusion protein (human; mouse, UniProt P01027 1002-1303, limits assumed); experiment: SPR (Biacore X100), Fab over captured hFc-mC3d
T3 construct: domain: C3d; not shown: human IgG Fc (hFc), captured by an anti-human IgG CH2 mAb
T3 sequence (P01027 1002-1303 limits assumed): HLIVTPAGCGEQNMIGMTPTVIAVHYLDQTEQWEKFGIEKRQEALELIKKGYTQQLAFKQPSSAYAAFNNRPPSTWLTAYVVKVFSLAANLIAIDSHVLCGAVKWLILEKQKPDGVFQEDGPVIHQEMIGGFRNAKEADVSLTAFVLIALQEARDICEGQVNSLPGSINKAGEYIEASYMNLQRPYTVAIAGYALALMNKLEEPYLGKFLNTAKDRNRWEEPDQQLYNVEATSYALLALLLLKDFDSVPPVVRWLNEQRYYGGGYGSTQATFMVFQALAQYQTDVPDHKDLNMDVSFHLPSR
Description: (§1) Kinetic and thermodynamic parameters characterizing the binding of purified Fabs to hC3d or mC3d was performed by surface plasmon resonance (SPR) in a Biacore X100 instrument (GE Healthcare). Using mouse anti-human IgG CH2 mAb immobilized on a CM5 sensor chip, hFc-hC3d or hFc-mC3d fusion proteins were captured at a density <400 RU. Each sensor chip included an empty flow cell for instantaneous background subtraction. All binding assays used 1×HBS-EP+ running buffer (10 mM HEPES, 150 mM NaCl, 3 mM EDTA (pH 7.4), and 0.05% (v/v) Surfactant P20) at a flow rate of 30 μL/min. […] Calculation of association (kₒₙ) and dissociation (koff) rate constants were based on a 1:1 Langmuir binding model. The equilibrium dissociation constant (KD) was obtained by the formula KD=koff/kₒₙ.

[4] = molecular target: T4, hFc-hC3d fusion protein (human, UniProt P01024 1002-1303, limits assumed); experiment: SPR (Biacore X100), Fab over captured hFc-hC3d
T4 construct: domain: C3d; also called immobilized hC3d; not shown: human IgG Fc (hFc), captured by an anti-human IgG CH2 / Fcγ mAb
Description: as §1

| Binder | binding result [1] | binding result [2] | Kd [3] [nM] | koff [3] [s⁻¹] | kon [3] [M⁻¹ s⁻¹] | Kd [4] [nM] | koff [4] [s⁻¹] | kon [4] [M⁻¹ s⁻¹] |
| --- | --- | --- | --- | --- | --- | --- | --- | --- |
| B1 | binds | no binding (tested: serum dilution 1/10) |  |  |  |  |  |  |
| B2 |  |  | 9.04 | 0.00174 | 193000 | 3.35 | 0.00054 | 162000 |
| B3 |  |  | 22.9 | 0.00568 | 248000 | 0.99 | 0.00014 | 141000 |
| B4 |  |  | 132 | 0.00801 | 60600 | 3.1 | 0.00028 | 90900 |
| B5 |  |  | 97.6 | 0.0227 | 232000 | 13.3 | 0.00126 | 94600 |
